Laboratory results from article PMC8469703, “Arginine Methylation of hnRNPK Inhibits the DDX3-hnRNPK Interaction to Play an Anti-Apoptosis Role in Osteosarcoma Cells” (International Journal of Molecular Sciences, 2021).

Assays:
[1] = molecular target: T1, GST-tagged full-length DDX3 (GST-DDX3^1–662) (human, UniProt O00571 1-662); test: pull-down; bead-bound GST-DDX3 variants incubated with recombinant hnRNPK or the KI segment; binding buffer PBS with 0.5% NP-40, 0.25% sodium deoxycholate, 5% glycerol, protease inhibitors; 4 °C, 1 h; three washes; SDS-PAGE; conditions: both partners purified
T1 construct: Vector pGEX-5X-1

[2] = molecular target: T2, GST-tagged C-terminal region of DDX3 (GST-DDX3^535–662) (human, UniProt O00571 535-662); test: as above; conditions: both partners purified
T2 construct: Vector pGEX-5X-1; also called DDX3 C-terminus
T2 sequence (O00571 535-662): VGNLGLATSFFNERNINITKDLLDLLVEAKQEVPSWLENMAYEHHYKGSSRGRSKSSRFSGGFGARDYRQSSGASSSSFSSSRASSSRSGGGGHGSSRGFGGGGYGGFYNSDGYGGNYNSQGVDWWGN

T1 sequence (O00571 whole entry): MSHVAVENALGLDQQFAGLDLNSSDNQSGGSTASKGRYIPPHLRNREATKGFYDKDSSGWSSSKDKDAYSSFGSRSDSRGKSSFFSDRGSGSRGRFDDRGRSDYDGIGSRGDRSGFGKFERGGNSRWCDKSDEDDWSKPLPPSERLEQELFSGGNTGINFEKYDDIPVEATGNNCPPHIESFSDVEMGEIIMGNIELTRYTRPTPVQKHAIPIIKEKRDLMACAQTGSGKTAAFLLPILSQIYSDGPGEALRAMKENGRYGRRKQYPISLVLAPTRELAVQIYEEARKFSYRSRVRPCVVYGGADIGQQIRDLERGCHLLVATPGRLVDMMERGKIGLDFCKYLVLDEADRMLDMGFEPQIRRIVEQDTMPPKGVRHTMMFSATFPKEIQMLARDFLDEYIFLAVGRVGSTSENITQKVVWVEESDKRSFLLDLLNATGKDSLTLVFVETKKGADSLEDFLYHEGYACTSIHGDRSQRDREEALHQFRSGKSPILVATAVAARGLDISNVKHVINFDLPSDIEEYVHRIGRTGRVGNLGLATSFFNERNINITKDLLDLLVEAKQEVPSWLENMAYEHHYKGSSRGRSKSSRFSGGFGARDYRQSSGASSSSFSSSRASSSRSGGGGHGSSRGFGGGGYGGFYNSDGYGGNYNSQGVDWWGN

B1: His6-tagged Trx-KI (K-interactive region of hnRNPK, amino acids 240–336) (domain or fragment, UniProt P61978 240-336, looked up)
chain: TMMFDDRRGRPVGFPMRGRGGFDRMPPGRGGRPMPPSRRDYDDMSPRRGPPPPPPGRGGRGGSRARNLPLPPPPPPRGGDLMAYDRRGRPGDRYDGM
notes: also called his-KI; KI segment; source: E. coli BL21 DE3 pLysS, purified (Ni-NTA agarose, dialysis)
binding result [1]: binds | binding result [2]: binds
